Each block holds one binder with its values, some of them ahead of it.
Key:
[1] = target: human integrin αvβ8 ectodomain (for structural studies) (Homo sapiens, UniProt P06756;P26012); test: cryo-EM structure
[2] = target: recombinant integrin αvβ5 (R&D Systems) (Homo sapiens (assumed), UniProt P06756;P18084); test: ELISA
[3] = target: recombinant integrin αvβ3 (R&D Systems) (Homo sapiens (assumed), UniProt P06756;P05106); test: ELISA
[4] = target: recombinant integrin αvβ1 (R&D Systems) (Homo sapiens (assumed), UniProt P06756;P05556); test: ELISA
Chain of recombinant integrin αvβ1 (R&D Systems) (P06756 31-1048, chain 1 of 2): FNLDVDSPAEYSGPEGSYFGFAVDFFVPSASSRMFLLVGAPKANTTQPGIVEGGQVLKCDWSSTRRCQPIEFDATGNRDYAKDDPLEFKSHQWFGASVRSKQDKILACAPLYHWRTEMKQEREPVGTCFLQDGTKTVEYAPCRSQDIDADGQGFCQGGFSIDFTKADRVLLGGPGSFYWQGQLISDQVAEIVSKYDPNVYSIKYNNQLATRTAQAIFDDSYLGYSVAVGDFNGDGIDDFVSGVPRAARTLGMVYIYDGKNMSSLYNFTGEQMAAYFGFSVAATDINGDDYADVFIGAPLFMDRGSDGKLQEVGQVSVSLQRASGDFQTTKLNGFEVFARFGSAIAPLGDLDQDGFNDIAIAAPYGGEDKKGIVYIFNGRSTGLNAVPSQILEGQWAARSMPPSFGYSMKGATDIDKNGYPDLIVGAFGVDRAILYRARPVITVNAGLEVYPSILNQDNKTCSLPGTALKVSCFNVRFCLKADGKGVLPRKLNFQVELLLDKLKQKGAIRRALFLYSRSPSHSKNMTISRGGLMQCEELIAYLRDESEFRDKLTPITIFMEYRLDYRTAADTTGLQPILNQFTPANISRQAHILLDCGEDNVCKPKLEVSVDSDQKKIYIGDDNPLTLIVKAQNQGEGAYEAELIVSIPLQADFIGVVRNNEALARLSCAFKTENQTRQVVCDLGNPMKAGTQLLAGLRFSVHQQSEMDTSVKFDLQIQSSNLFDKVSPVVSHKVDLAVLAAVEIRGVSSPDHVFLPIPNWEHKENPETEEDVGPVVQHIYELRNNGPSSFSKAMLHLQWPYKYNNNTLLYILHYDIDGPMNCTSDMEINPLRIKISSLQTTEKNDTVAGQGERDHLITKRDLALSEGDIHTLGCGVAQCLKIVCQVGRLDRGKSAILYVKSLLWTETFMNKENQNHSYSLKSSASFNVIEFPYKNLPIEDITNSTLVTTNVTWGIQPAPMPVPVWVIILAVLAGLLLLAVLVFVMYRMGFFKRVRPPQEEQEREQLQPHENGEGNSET
Chain of recombinant integrin αvβ1 (R&D Systems) (P05556 21-728, chain 2 of 2): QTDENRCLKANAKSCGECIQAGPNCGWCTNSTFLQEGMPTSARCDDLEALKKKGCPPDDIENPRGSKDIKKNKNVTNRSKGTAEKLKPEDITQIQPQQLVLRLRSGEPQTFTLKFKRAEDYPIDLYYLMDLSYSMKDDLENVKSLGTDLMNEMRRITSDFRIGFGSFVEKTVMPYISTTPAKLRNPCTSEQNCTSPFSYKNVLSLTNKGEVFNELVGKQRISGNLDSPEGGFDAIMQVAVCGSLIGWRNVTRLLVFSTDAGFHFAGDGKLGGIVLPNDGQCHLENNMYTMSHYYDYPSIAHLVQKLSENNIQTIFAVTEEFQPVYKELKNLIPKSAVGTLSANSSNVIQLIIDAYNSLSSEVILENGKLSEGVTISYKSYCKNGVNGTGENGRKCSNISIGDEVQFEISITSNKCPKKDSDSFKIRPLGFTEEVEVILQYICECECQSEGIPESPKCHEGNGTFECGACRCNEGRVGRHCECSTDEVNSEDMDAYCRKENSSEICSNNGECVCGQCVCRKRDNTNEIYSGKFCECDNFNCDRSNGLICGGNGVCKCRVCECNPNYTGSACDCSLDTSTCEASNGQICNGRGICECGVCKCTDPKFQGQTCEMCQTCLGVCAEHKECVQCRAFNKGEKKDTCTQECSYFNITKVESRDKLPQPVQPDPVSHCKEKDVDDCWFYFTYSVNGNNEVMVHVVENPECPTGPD

Chain of recombinant integrin αvβ5 (R&D Systems) (P06756 31-1048, chain 1 of 2): as the sequence (P06756 31-1048, chain 1 of 2) above
Chain of recombinant integrin αvβ5 (R&D Systems) (P18084 24-719, chain 2 of 2): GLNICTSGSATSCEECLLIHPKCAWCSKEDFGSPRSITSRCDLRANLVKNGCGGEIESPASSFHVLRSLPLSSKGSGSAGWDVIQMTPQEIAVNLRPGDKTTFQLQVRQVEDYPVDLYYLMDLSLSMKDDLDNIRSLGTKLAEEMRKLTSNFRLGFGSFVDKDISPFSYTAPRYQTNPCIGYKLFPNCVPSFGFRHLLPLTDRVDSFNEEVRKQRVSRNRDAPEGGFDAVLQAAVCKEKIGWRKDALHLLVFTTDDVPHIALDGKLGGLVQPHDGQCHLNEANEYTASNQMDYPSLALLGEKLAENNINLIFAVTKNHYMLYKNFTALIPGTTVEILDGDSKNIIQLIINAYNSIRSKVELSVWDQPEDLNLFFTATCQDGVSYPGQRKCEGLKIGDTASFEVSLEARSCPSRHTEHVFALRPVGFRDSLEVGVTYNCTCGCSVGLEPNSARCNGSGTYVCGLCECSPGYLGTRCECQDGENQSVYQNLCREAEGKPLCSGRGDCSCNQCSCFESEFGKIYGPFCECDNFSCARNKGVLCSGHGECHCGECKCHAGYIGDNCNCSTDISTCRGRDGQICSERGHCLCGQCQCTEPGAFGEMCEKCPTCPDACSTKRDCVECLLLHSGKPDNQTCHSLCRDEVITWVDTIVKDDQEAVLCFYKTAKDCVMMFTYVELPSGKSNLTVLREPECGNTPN
Chain of recombinant integrin αvβ3 (R&D Systems) (P06756 31-1048, chain 1 of 2): as the sequence (P06756 31-1048, chain 1 of 2) above
Chain of recombinant integrin αvβ3 (R&D Systems) (P05106 27-718, chain 2 of 2): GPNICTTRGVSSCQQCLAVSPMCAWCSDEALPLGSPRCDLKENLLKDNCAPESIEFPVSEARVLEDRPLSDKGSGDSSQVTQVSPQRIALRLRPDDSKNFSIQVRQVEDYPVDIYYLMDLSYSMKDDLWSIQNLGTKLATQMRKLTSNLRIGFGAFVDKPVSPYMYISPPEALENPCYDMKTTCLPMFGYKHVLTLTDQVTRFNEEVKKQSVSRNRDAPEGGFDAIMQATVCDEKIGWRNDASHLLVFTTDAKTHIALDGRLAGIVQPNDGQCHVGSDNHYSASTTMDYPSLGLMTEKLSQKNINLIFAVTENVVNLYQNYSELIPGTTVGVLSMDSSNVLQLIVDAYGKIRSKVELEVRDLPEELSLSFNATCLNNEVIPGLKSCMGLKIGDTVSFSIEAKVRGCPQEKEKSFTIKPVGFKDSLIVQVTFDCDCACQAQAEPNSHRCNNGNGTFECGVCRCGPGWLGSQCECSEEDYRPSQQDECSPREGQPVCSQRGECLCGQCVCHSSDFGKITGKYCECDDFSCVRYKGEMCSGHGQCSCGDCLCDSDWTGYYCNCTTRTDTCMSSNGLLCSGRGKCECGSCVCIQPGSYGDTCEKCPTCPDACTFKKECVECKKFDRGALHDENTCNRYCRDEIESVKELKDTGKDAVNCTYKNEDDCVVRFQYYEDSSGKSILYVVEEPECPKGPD
Chain of human integrin αvβ8 ectodomain (for structural studies) (P06756 31-992, chain 1 of 2): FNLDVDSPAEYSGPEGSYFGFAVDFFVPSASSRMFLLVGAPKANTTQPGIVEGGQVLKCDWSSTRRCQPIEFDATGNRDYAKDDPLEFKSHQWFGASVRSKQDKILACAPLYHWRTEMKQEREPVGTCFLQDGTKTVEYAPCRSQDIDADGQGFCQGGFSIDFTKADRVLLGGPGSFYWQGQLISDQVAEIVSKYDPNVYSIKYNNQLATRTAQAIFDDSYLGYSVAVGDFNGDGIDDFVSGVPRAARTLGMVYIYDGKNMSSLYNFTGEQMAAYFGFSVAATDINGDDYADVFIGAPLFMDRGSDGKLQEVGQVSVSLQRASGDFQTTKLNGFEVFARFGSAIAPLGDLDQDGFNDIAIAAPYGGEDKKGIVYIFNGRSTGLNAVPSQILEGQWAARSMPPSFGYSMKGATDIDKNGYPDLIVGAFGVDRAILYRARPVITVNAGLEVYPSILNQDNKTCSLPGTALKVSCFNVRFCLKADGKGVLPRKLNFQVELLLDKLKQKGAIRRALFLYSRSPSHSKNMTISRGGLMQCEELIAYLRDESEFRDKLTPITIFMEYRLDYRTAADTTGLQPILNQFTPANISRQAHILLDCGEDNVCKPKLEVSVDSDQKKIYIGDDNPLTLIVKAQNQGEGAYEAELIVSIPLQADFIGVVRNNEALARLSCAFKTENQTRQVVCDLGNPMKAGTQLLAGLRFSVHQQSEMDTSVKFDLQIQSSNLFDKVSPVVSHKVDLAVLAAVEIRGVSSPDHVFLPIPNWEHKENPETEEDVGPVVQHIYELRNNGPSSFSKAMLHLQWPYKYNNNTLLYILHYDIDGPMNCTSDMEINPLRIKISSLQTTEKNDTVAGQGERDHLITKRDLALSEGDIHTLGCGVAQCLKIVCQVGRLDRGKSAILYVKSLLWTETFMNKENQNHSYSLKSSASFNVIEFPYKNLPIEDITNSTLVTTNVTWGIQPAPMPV
Chain of human integrin αvβ8 ectodomain (for structural studies) (P26012 43-684, chain 2 of 2): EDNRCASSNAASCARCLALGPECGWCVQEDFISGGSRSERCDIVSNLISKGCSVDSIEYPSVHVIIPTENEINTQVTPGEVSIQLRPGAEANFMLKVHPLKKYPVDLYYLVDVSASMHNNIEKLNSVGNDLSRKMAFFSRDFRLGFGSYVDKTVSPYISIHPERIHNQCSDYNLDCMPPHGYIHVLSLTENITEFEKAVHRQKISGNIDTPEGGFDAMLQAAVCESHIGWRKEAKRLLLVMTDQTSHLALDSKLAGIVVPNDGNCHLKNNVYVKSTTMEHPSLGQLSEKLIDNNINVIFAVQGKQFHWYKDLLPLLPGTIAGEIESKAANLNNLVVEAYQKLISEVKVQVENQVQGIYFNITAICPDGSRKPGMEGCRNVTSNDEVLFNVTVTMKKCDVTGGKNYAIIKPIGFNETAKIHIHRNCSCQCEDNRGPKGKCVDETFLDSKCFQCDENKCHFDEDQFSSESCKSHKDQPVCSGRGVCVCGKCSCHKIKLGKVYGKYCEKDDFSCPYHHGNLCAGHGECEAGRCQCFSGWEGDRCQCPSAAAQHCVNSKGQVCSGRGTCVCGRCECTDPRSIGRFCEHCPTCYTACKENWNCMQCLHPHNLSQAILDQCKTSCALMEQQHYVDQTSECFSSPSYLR

- binding result [1]: binds
B1: C6-RGD3 Fab (Fab, V domains shown)
VH: QIQLVQSGPELKKPGETVKISCKASGYTFTDYSMHWVKQAPGKGLKWVARINTETGEPTFADDFRGRFAVSLETSASTAYLQINNLKNEDTATYFCAIFYYGRDSWGQGTTLTVSS
VL: DIVMTQSPSSLAVSAGEKVTMSCKSSQSLLGRGDLGRLKKNALAWYQQKPGQSPRLLIYWASTRESGVPDRFTGSGSGTDFTLTISSVQAEDLAVYYCKQSYNLLSFGAGTKLELK

- binding result [2]: no binding
- binding result [3]: no binding
- binding result [4]: no binding
B2: C6-RGD3 antibody (mouse IgG2a) (antibody, V domains shown)
VH: B1 VH
VL: B1 VL
